Experimental data as given in patent publication US20150232562A1 (Ablynx, published 2015).

Assays:
[1] = target: T1, Epidermal Growth Factor Receptor 2 (HER2) (human, UniProt P04626 23-1255); test: FMAT competition on SKBR3 cells, periplasmic extract
T1 construct: whole, on cells; the cell line is named under assay; also called ErbB-2; ERBB2

[2] = target: T2, recombinant human ErbB2/Fc chimera (human, UniProt P04626 23-652); test: SPR (Biacore 3000), periplasmic extract over immobilised rhErbB2-Fc
T2 construct: bought from R&D Systems; also called rhErbB2-Fc; rhErb2-Fc; Fc part of the bought chimera not given; not described

% blocking of Herceptin binding [1] [%] | koff [2] [s⁻¹] | Binder
> 90 |  | 17E3 (VHH, C-term myc-His6 tag) VHH: EVQLVESGGGLVQAGGSLRLSCVASKMTFMRYTMGWYRQAPGKQRDLVASIDSSGGTNYADSVKGRFTISRDNAKNTVYLEMNSLTPEDTAVYYCNQGWKIVPTDRTGHGTQVTVSS
> 90 |  | 30H9 (VHH, C-term myc-His6 tag) VHH: EVQLVESGGSLVQPGGSLRLSCAASGFTFDDYAMTWVRQAPGKGLEWVSSINWSGTHTDYTDSVKGRFTISRNNANNTLYLQMNSLKSEDTAVYYCAKNWGDAGTTWFEKSGSAGQGTQVTVSS
> 90 | 0.00157 | 2F5 (VHH, C-term myc-His6 tag) VHH: EVQLVESGGSLVPPGGSLRLSCAASGFTFDDYAMSWVRQAPGKGLEWVSSINWSGTHTDYTDSVKGRFTISRNNANNTLYLQMNSLKSEDTAVYYCAKNWGDAGTTWFEKSGSAGQGTQVTVSS
> 90 |  | 118N121_A1_4_OK/1-127 (VHH, C-term myc-His6 tag) VHH: EVQLVESGGGFVQTGGSPRLSCAASGRSFSEYAAAWFRQSPGKERDLVAGIMWDGRSLFYADSVKGRFTISRDNAKNTLHLQMNSLKPEDTAVYYCAYHKTPYTTLELNRPHAFGSWGQGTQVTVSS
> 90 |  | 17B8 (VHH, C-term myc-His6 tag) VHH: EVQLVESGGGLVQPGGSLRLSCVASGFSLDDYGMTWVRQAPGKGLEWVSSINWSGTHTDYADSVKGRFTISRDNAKNTLFLQMNSLTPEDTAVYYCNQGWKILPAERRGHGTQVTVSS
> 90 |  | 17A2 (VHH, C-term myc-His6 tag) VHH: EVQLVESGGGLVQPGGSLRLSCVASGFSLDDYAMTWVRQAPGKGLEWVSSINWSGTHTDYADSVKGRFTISRDNAKNTLFLQMNSLSPEDTAVYYCNKGWKVWPTDRGTHGTQVTVSS
> 90 |  | 29H2 (VHH, C-term myc-His6 tag) VHH: EVQLVESGGGLVQPGGSLRLSCVASGFSLDDYGMTWVRQAPGKGLEWVSSINWSGTHTDYADSVKGRFTISRDNAKNTLFLQMNNLTPEDTAVYYCNQGWKIIPTDRRGHGTQVTVSS
> 90 |  | 27G8 (VHH, C-term myc-His6 tag) VHH: EVQLVESGGGLVQPGGSLRLSCVASGFSLDDYGMTWVRQAPGKGLEWVSSINWSGTHTDYADSVKGRFTISRDNAKNTLFLQMNSLTPEDTAVYYCNQGWKILPAERRGHGTQVTVSS
> 90 |  | 17H4 (VHH, C-term myc-His6 tag) VHH: EVQLVESGGGLVQPGGSLRLSCVASGFSLINYAMTWVRQAPGKGLEWVSSINWSGTHTDYADSVKGRFTISRDNAKNTLFLHMNNLSPEDTAVYYCGQGWKIHPADRGGHGTQVTVSS
> 90 | 0.0013 | 2G2 (VHH, C-term myc-His6 tag) VHH: EVQLVESGGGLVQPGGSLRLSCVASGFSLDDYGMTWVRQAPGKGLEWVSSINWSGTHTDYTDPVKGRFTISRDNAKNTLFLQMNNLTPEDTAVYYCNRGWKIVPTDLGGHGTQVTVSS
> 90 |  | 38C6 (VHH, C-term myc-His6 tag) VHH: EVQLVESGGGLVQPGGSLRLSCVGSGFSLDDYAMTWVRQAPGKGLEWVSSINWSGTHTDYADSVKGRFTISRDNAKNTLFLQMNSLSPEDTAVYYCNQGWKIRPTIPMGHGTQVTVSS

More lines, now with the values behind:

Binder | % blocking of Herceptin binding [1] [%] | koff [2] [s⁻¹]
2H4 (VHH, C-term myc-His6 tag) VHH: EVQLVESGGSLVQPGGSLRLSCAASGFTFDDYAMTWVRQAPGKGLEWVSSINWSGTHTDYTDSVKGRFTISRNNANNTLYLQMNSLKSEDTAVYYCAKNWGDAGTTWFEKSGSAGQGTQVTVSS | > 90 | 0.00161
2D4 (VHH, C-term myc-His6 tag) VHH: EVQLVESGGSLVQPGGSLRLSCAASGFTFDDYAMTWVRQAPGKGLEWVSSINWSGTHTDYADSVKGRFTISRNNANNTLYLQMNSLKSDDTAVYYCAKNWGDAGTTWFEKSGSAGPGTQVTVSS | > 90 | 0.00165
2F3 (VHH, C-term myc-His6 tag) VHH: EVQLVESGGSLVQPGGSLRLSCAASGFTFDDYAMTWVRQAPGKGLEWVSSINWSGTHTDYTGSVKGRFTISRNNANNTLYLQMNSLKSDDTAVYYCAKNWGDAGTTWFEKSGSAGPGTQVTVSS | > 90 | 0.00153
2B1 (VHH, C-term myc-His6 tag) VHH: EVQLVESGGSLVQPGGSLRLSCAASGFTFDDYAMTWVRQAPGKGLEWVSSINWSGTHTDYTDSVKGRFTISRNNANNTLYLQMNSLKSDDTAVYYCAKNWGDAGTTWFEKSGSAGPGTQVTVSS |  | 0.00155
2C1 (VHH, C-term myc-His6 tag) VHH: EVQLVESGGGLVQPGGSLRLSCVASGFSLDDYGMTWVRQAPGKGLEWVSSINWSGTHTDYTDSVKGRFTISRDNAKNTLFLQMNSLTPEDTAVYYCNQGWKIIPTDRRGHGTQVTVSS |  | 0.00118
2B3 (VHH, C-term myc-His6 tag) VHH: EVQLVESGGGLVQPGGSLRLSCVASGFSLDDYGMTWVRQAPGKGLEWVSSINWSGTHTDCADSVKGRFTISRDNAKNTLFLQMNSLTPEDTAVYYCNQGWKIIPTDRRGHGTQVTVSS | > 90 | 0.00125
2F4 (VHH, C-term myc-His6 tag) VHH: EVQLVESGGGLVQPGGSLRLSCVASGFSLDDYGMTWVRQAPGKGLEWVSSINWSGTHTDYADSVKGRFTISRDNAKNTLFLQMNSLRSEDTAVYYCNQGWKIVPTDRRGHGTQVTVSS | > 90 | 0.00107
2D5 (VHH, C-term myc-His6 tag) VHH: EVQLVESGGGLVQPGGSLRLSCVASGFSLDDYGMTWVRQAPGKGLEWVSSINWSGTHTDYADSVKGRFTISRDNAKNTLFLQMNSLRSEDTAVYYCNQGWKIVPTDRGGHGTQVTVSS | > 90 | 0.0012
2B4 (VHH, C-term myc-His6 tag) VHH: EVQLVESGGGLVQPGGSLRLSCVGSGFSLDDYAMTWVRQAPGKGLEWVSSINWSGTHTDYADSVKGRFTISRDNAKNTLFLQMNSLSPEDTAVYYCNQGWKIRPTIPMGHGTQVTVSS |  | 0.00277
2D1 (VHH, C-term myc-His6 tag) VHH: EVQLVESGGGLVQPGGSLRLSCVASGFSLDDYGMTWVRQAPGKGLEWVSSINWSGTHTDYADSVKGRFTISRDNAKNTLFLQMNSLSPEDTAVYYCNRGWKILPTNRGSHGTQVTVSS | > 90 | 0.00127
2C2 (VHH, C-term myc-His6 tag) VHH: EVQLVESGGGLVQPGGSLRLSCVASGFSLDDYAMTWVRQAPGKGLEWVSSINWSGTHTDYADSVKGRFTISRDNARNTLFLQMNSLTPEDTAIYYCNQGWKILPTDRRGHGTQVTVSS | > 90 | 0.00412
2F1 (VHH, C-term myc-His6 tag) VHH: EVQLVESGGGLVQPGGSLRLSCVASGFSLDDYGMTWVRQAPGKELEWISSINWSGTHTDYADSVKGRFTISRDNAKNTLFLQMNSLTPEDTAVYYCNQGWKIVPMDRRGHGTQVTVSS | > 90 | 0.00177
